According to PMC12409433:

Columns and labels:
[1] = molecular target: Klebsiella pneumoniae N-acetylglucosamine-6-phosphate deacetylase (NagA) (Klebsiella pneumoniae); assay: SEC-MALS; Superdex 200 Increase 10/300 GL, 0.5 ml/min, 20°C, DAWN-Treos detector; BSA for calibration
[2] = molecular target: Klebsiella pneumoniae N-acetylglucosamine-6-phosphate deacetylase (NagA) (Klebsiella pneumoniae); assay: SEC; Superdex 200 Increase 10/300 GL, 20 mM Tris-HCl pH 8.0, 150 mM NaCl; apparent mass by calibration with molecular weight standards

## Klebsiella pneumoniae N-acetylglucosamine-6-phosphate deacetylase (NagA) (enzyme)
[1]
  stoichiometry N: 4
[2]
  stoichiometry N: 4
